Laboratory results from US20190211359A1 (INSTITUTE FOR CANCER RESEARCH D B A THE RESEARCH INSTITUTE …, published 2019).
Positions count from the first letter of the chain named.

B1: DNA-dependent activator of interferon-regulatory factors (DAI), wild-type full-length murine (other, mouse, UniProt Q9QY24 1-411, looked up)
chain: MAEAPVDLSTGDNLEQKILQVLSDDGGPVKIGQLVKKCQVPKKTLNQVLYRLKKEDRVSSPEPATWSIGGAASGDGAPAIPENSSAQPSLDERILRFLEANGPHRALHIAKALGMTTAKEVNPLLYSMRNKHLLSYDGQTWKIYHSRQEGQDIAHSGVTQESPAIICQHNPVNMICQQGANSHISIANSNAIQIGHGNVIVREKACGEPGPRTSHPLPLAWDASAQDMPPVAHGAQYIYMDKSLLQQVQLGHHNEMSLVGDAGKHPSYSFSDSPPEVSTTTADPGASFNMQTFEPGPHPEGDTVQTVHIKSCFLEDATIGNGNKMTIHLRSKGEVMESGDSEEPKKEDTGTSSEATPPRSCQHTPSDSMLPTSELRAMALGDSSPQTTEPVLREHEVQDIESSQDTGLSKQ
notes: also called ZBP1; DLM-1
B2: murine DAI with mutant RHIM domain (amino acids 192-195 IQIG to AAAA) (other, mouse, UniProt Q9QY24 1-411, looked up)
chain: B1 chain with I192A, Q193A, I194A, G195A
notes: also called DAI mutRHIM

Key:
[1] = biological target: T1, receptor-interacting serine/threonine-protein kinase 3 (RIPK3), murine (mouse, UniProt Q9QZL0 1-486); assay: RIPK3 immunoprecipitated from PR8-infected wild-type MEFs, immunoblot for DAI (FIG. 13A); also seen with re-expressed wild type DAI (FIG. 13D)
T1 construct: Endogenous protein of MEFs, pulled down with anti-RIPK3 antibody; also called RIP3
Experimental: FIGS. 13A through 13F show DAI is required for IAV induced formation of RIPK3-containing necrosome complex. […] In parallel, wild-type (WT), zbp1^{-/-}, and ripk3^{-/-} MEFs were treated with […] and phosphorylated MLKL. […] In parallel, reconstituted cells were treated with TCZ and examined for expression of phosphorylated p MLKL. […] Whole-cell extract (5% input) was examined in parallel for RIPK3, DAI and IAV NS1 proteins.

[2] = biological target: T1, receptor-interacting …; assay: anti-RIPK3 immunoprecipitation from PR8-infected reconstituted zbp1-/- MEFs, immunoblot (FIG. 13D)

T1 sequence (Q9QZL0 whole entry): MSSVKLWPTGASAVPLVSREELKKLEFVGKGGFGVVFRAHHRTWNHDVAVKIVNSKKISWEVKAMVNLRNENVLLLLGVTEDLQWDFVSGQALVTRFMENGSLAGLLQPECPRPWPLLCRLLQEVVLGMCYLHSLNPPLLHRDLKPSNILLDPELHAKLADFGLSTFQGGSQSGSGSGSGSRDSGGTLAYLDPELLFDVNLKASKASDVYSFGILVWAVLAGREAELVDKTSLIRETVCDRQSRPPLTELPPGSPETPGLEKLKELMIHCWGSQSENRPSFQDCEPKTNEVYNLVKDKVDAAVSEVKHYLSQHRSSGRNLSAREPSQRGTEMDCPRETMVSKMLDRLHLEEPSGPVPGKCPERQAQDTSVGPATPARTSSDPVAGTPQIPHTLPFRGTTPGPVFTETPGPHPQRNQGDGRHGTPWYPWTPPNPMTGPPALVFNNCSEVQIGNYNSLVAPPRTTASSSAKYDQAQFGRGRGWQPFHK

Binder | binding result [1] | binding result [2]
B1 | binds | 
B2 |  | no binding
